From patent publication US20130330359A1 (AbbVie / Abbott, published 2013) come the findings set out here.

The target in assay [1] is T1, RGMc antigen: amino acids 33-391 of RGMc followed by human Fc (human, UniProt Q6ZVN8 33-391).
T1 construct: also called RGMc-huFc; RGMc-Fc; not shown: human Fc
T1 sequence: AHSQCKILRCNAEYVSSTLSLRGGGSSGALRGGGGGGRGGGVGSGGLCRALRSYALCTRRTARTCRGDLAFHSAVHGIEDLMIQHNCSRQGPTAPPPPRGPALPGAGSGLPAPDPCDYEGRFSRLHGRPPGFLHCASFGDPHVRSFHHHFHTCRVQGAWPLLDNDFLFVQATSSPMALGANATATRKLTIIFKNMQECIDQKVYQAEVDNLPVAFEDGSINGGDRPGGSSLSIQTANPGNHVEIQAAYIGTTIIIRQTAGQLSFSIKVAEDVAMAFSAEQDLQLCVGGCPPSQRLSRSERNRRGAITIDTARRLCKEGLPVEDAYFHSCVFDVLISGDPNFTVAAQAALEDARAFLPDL
In words: direct EIA: RGMc-huFc coated at 1.0 ug/mL; supernatant diluted 1:125; goat anti-mouse IgG Fc-HRPO. The procedure:
A mouse:human chimeric antibody or RGMc-huFc was coated on the solid phase of micro-titer EIA plates at 1.0 ug/mL. After the antigen had been coated on the solid phase, it was removed and any open binding sites on the plates were blocked using BSA block solution. The wells were washed with distilled water. Cell supernatants and control reagents were added to the blocked plates and allowed to incubate at room temperature for at least one hour. The negative control was a purified mAb from a different antigen system. The positive control for human IgG was a purified anti-hu IgG mAb developed against another antigen containing human IgG Fc carrier protein. The RGMc positive control is Novus mab 1C12. Following this incubation, the solutions were removed from the plates and they were washed with distilled water. Goat anti-mouse IgG Fc-HRPO (Jackson Immunoresearch) diluted to approximately 200 ng/mL in block solution was added to the plates and allowed to incubate for 30 minutes at room temperature. The plates were washed with distilled water and o-phenylenediamine substrate (Abbott Laboratories) was used as the chromogen to generate signal. Plates were read at 492 nm and the results were analyzed.

Assay [2] concerns the target T1, RGMc antigen: amino acids 33-391 of …. In words: chemiluminescence immunoassay: supernatant mAb captured on sheep anti-mouse IgG Fc, RGMc-huFc at 200 ng/mL, acridinium-labeled goat anti-RGMc detection. How it is done:
Cell supernatant samples were analyzed for anti-RGMc antibodies by Chemiluminescence immunoassay (CIA). Sheep anti-mouse IgG Fc (Jackson Immunoresearch, West Grove, Pa.) was coated on 96 well micro-titer CIA plates (NUNC) at 5 ug/mL. After the capture reagent had been coated on the solid phase, it was removed and any open binding sites on the plates were blocked using a Fish gel/PBS (2% v/v) block solution. The wells were washed with distilled water and cell supernatants were added to the blocked plates and allowed to incubate at room temperature for at least one hour. The anti-mouse IgG Fc captures the anti-RGMc mouse antibody from the supernatant. Following the incubation, the supernatants were washed off using distilled water. A mouse/human IgG chimeric antibody (Abbott Laboratories) diluted in fish gel block to 5 ug/ml was added to each well and incubated for approximately 30 minutes at room temperature to block any captured mAbs that are specific for human IgG Fc portion of the immunogen. Following the incubation, the human IgG blocking solution was washed off using distilled water. RGMc-huFc antigen was then added to the plates at 200 ng/mL in fish gel block and incubated for 30 minutes at room temperature. Following this incubation, the antigen was washed from the plates using distilled water. Acridinium labeled goat anti-RGMc polyclonal antibody (R&D Systems, Minneapolis, Minn.) was diluted to 200 ng/ml in fish gel block, then added to the plates and allowed to incubate for 30 minutes at room temperature. The plates were washed with distilled water then processed on the Microbeta Jet instrument (Perkin Elmer, Waltham, Mass.). The Microbeta Jet adds Architect© Pre-Trigger and Trigger solutions (Abbott Laboratories). The plates are then read for flash chemiluminescence in luminescent counts per second (LCPS). […] The positive control (PC) used in this assay was spent medium from unfused splenocytes harvested from mouse #814 that were cultured for 7 to 10 days at 37° C.

B1: 1A-2860-475 (antibody, V domains shown)
VH: DVLLQESGPDLVKPSQSLSLTCTVTGYSISSGYSWHWIRQFPGNKLEWMAYIHYTGNTNYNPSLKSRISITRDTSKNQFFLHLNSVTTEDTATYYCALFGLSGFWGQGTLVTVSA
VL: DVLMTQTPLSLPVSLGDQASISCRSSQTIVHSNGNTYLDWYLQKPGQSPKVLIYKVSNRFSGVPDRFSGSGSGTDFTLKISRVEAEDLGVYFCLQGSHVPWTFGGGTQLEIKR
notes: The parent line 1A-2860 and subclone 1A-2860-177 used in the assays are treated here as the same antibody; also called 1A-2860-177
With B1, the “absorbance at 492 nm” value in assay [1] amounted to 1.66. Moreover, in assay [2], the LCPS stood at 6610 LCPS.

B2: 1B-3363-715 (antibody, V domains shown)
VH: DVQLQESGPDLVKPSQSLSLTCTVTGYSITSGYSWHWIRQFPGNKLEWMGYIHYSGNTDYNPSLKSRISFTRDTSKNQFFLQLNSVTTEDTATYFCAIGTGPWGQGTTLTVSS
VL: DVLMTQTPLSLPVSLGDQASISCRSSQNIVHSNGHTYLEWYLQKPGQSPKLLIYKVSNRFSGVPDRFSGSGSGTDFTLKISRVEAEDLGVYYCFQGSHVPWTFGGGTKLEIKR
notes: The parent line 1B-3363 and subclone 1B-3363-502 used in the assays are treated here as the same antibody; also called 1B-3363-502
As to B2, in assay [1], the “absorbance at 492 nm” value was 2.8. Besides, the LCPS in assay [2] is 5260 LCPS.

B3: 1A-2989-187 (antibody, V domains shown)
VH: EVQLQQSGAELVRSGASVKLSCTASGFNIRDFYIHWVKQRPEQGLEWLGWIDPENGDIEYAPKFQGKATMTADTSSNTAYLQLNSLTSEDTALYYCNGNGYYLDYWGQGTTLTVSS
VL: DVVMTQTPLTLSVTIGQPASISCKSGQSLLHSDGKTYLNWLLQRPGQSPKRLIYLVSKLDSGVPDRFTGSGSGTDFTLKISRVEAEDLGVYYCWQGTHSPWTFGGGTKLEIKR
Regarding B3, the “absorbance at 492 nm” value in assay [1] came to 1.55. Also, in assay [2], the LCPS was 2500 LCPS.
